pIC50, pKd: −log10 of the molar value.
Assays:
[1] = molecular target: PD-L1, histidine (His)-tagged (UniProt Q9NZQ7); assay: AlphaScreen or HTRF; AlphaLISA kit AL356 HV/C/F (PerkinElmer), competition: biotin-conjugated PD-1 on streptavidin-coated donor beads, His-tagged PD-L1 on anti-His acceptor beads; 2 uL each of inhibitor dilution, PD-L1 (25 nM), PD-1 (25 nM) and the two beads in 10 uL; 25 °C, 90 min; IC50 from sigmoidal fit
[2] = molecular target: PD-L1 (Homo sapiens) (UniProt Q9NZQ7); settings: cited from earlier work
PD-L1 (Homo sapiens), sequence (Q9NZQ7 19-238): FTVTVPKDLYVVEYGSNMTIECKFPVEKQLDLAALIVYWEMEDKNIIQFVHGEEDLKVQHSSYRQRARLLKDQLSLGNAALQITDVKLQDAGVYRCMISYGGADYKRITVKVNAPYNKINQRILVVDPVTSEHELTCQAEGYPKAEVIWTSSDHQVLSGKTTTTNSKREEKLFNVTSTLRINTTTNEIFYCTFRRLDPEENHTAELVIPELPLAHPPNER

PD-L1, histidine (His)-tagged, sequence (Q9NZQ7 19-238): as above
PD-1, sequence (Q15116 25-170): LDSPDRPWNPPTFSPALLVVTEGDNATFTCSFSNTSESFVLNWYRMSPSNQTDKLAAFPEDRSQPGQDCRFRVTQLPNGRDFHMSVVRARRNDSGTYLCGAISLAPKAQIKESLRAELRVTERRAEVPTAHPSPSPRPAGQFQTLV

Row | pIC50 [1] | Substance | pKd [2]
1 | 3.51 | CERXNKM (peptide) | –
2 | 3.51 | FWRXNNI (peptide) | –
3 | – | PD-1 (from UniProt Q15116) | 5.19

— paper PMC7279355, “Preparation of Biphenyl-Conjugated Bromotyrosine for Inhibition of PD-1/PD-L1 Immune Checkpoint Interactions” (International Journal of Molecular Sciences, 2020)
